Positions count from the first letter of the chain named.
Experiments:
[1] = target: T1, SNAP-tag (control) (UniProt P16455); test: pulldown; settings: SNAP-tag control background
T1 sequence: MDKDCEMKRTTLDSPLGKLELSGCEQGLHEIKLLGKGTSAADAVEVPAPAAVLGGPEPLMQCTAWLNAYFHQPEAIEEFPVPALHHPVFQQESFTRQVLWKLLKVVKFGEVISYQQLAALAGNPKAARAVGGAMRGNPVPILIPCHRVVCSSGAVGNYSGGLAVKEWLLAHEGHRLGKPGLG

[2] = target: T2, Human estrogen receptor alpha (hERα), full-length, unliganded (Homo sapiens, UniProt P03372 P03372:1-595); test: EMSA; 25 nM hERα; no difference from sB63; settings: tags: none stated; baculovirus/insect cells; Invitrogen P2187 or EMD4 Biosciences 330655; label: 32P internal
[3] = target: T2, Human estrogen receptor alpha (hERα), …; test: EMSA; 10 mM MgCl2, 37 C binding; settings: tags: none stated; baculovirus/insect cells; Invitrogen P2187 or EMD4 Biosciences 330655; label: 32P internal; stem-loop
[4] = target: T2, Human estrogen receptor alpha (hERα), …; test: EMSA; 200 nM ERα; two shifted bands; settings: tags: none stated; baculovirus/insect cells; Invitrogen P2187 or EMD4 Biosciences 330655; label: labeled
[5] = target: T2, Human estrogen receptor alpha (hERα), …; test: EMSA; 35 nM hERα; fully active; settings: tags: none stated; baculovirus/insect cells; Invitrogen P2187 or EMD4 Biosciences 330655; label: 32P internal; stem-loop
[6] = target: T2, Human estrogen receptor alpha (hERα), …; test: EMSA; 200 nM ERα; one complex; BSA and yeast RNA competitors; settings: tags: none stated; baculovirus/insect cells; Invitrogen P2187 or EMD4 Biosciences 330655; label: labeled
[7] = target: T2, Human estrogen receptor alpha (hERα), …; test: filter; same buffer, 37 C; Hill n>1; settings: tags: none stated; baculovirus/insect cells; Invitrogen P2187 or EMD4 Biosciences 330655; label: 32P-CTP internal
Procedure: The dissociation constant (Kd) of the AptER-1, -2, -3, and -4 were measured using a nitrocellulose filter binding assay. A constant trace amount of [γ-³²P]-CTP incorporated RNA aptamer (˜0.1 nM) was titrated with increasing amounts of the target protein ranging from 5 to 150 nM. The binding activity at each concentration was determined as % binding, by calculating the radioactive signal of the RNA-protein complex retained on the filter as a percentage of the signal at the highest protein concentration (saturated) used. The assays were performed in triplicates for each aptamer. A binding curve was constructed using Sigma Plot 9.0.1, with average binding affinity (% binding) as a function of the protein concentration using a sigmoidal equation (Hill equation, 3 parameters). Apparent Kd was the protein concentration where half of the maximal binding activity was achieved, and were calculated from the data points by using Sigma Plot. […] The first 3 aptamers were isolated in in vitro selection I, and their affinity rank explains the relative abundance in the final selected library. More specifically, it is believed that AptER-1 dominated the final selected pool because it was the strongest binder. AptER-4 was the weakest binder, and would not have been easily identified in the selection I libraries.

[8] = target: Human estrogen receptor beta (hERβ) (Homo sapiens, UniProt Q92731 Q92731:1-530); test: EMSA; affinity similar to hERα; settings: tags: none stated; baculovirus/insect cells; EMD4 Biosciences 330657; label: 32P-CTP internal
Procedure: FIGS. 9A-B illustrate the binding specificity of AptER-1, -2 and -3. […] Radiolabeled AptER-1, -2 and -3 (0.1 nM) were incubated with 20 nM hERα, 200 nM hERβ, or 200 μg/ml HeLa nuclear extract (NE). Binding reactions were resolved on a 4.8% polyacrylamide gel (acrylamide:bis-acrylamide=37.5:1) in ¼×TBE buffer. […] Radiolabeled AptER-1, -2 and -3 (0.1 nM) were incubated with 20 nM or 40 nM hERα, or hERβ. Binding reactions were resolved as described above.
To examine the binding specificity of the first set of isolated aptamers, AptER-1, -2 and -3, proteins were presented at high concentrations in ESMA, including hERβ at 200 nM or HeLa nuclear extract at 200 μg/ml, which should allow detection of weak binding activity. […] This was confirmed in a second EMSA using the two ER subtypes at the same concentrations (FIG. 9B). Furthermore, the binding affinities to the two forms were very close, as shown in the EMSA, and this was more carefully compared with the binding curves of AptER-1 (FIG. 8A). […] In the presence of HeLa nuclear extract (FIG. 9A), no specific shifted band could be observed.

[9] = target: T2, Human estrogen receptor alpha (hERα), …; test: EMSA; no binding; method EMSA or filter; settings: tags: none stated; baculovirus/insect cells; Invitrogen P2187 or EMD4 Biosciences 330655
[10] = target: T2, Human estrogen receptor alpha (hERα), …; test: EMSA; about half shifted below 15 nM; more than two-fold stronger than monomer; settings: tags: none stated; baculovirus/insect cells; Invitrogen P2187 or EMD4 Biosciences 330655; label: 32P-CTP internal; two AptER-1(53nt) units on three-way junction of H. marismortui 5S RNA
[11] = target: hERα DNA-binding domain (Homo sapiens, UniProt P03372 P03372:180-268); test: EMSA; 100-400 nM DBD, 5 nM DNA; settings: tags: N-terminal His6; E. coli BL21(DE3); label: 5'-32P; hairpin with GAAA tetraloop, ERE in stem
Procedure: (§1) No binding activity to RNase inhibitor (control) or DBD & RNase inhibitor was detected. The binding reactions were resolved on the same type of gel as above. […] End-radiolabeled ERE-50mer at 5 nM was mixed with 100× or 400× more concentrated unlabeled competitors ERE-50mer, AptER-1, -2 and -3 RNA or an early generation pool in hERα selection G1 before addition of hERα (40 nM). Only cold ERE-50mer disrupted radioactive ERE-hERα complex.
Class I aptamers bound with similar affinities to both subtypes of ER, which share the highest homology (96%) in the DBD. This raised the possibility that the target site of Class I aptamers was located within the DBD. Whether the aptamers bind to the DBD was tested in binding assays using a recombinant hERα-DBD. It was expressed as a His₆-tagged fusion protein in E. coli BL21 (DE3) and purified as described in the Materials and Methods. To verify its ERE-binding capability, a DNA EMSA was performed. DNA oligo ERE-50mer contains a GAAA tetra loop, which forces the oligo to form a hairpin. A copy of Xenopus laevis vitellogenin A2 ERE (5′-[…]-3′, SEQ ID NO: 73) was presented in the stem of a hairpin. […] However, in both EMSA (FIG. 11B) and filter-binding assay, no association was detected between AptER-1 and DBD. […]

[12] = target: T2, Human estrogen receptor alpha (hERα), …; test: EMSA; not competed by AptER-1, -2, -3 or -4; competed by cold ERE; settings: tags: none stated; baculovirus/insect cells; Invitrogen P2187 or EMD4 Biosciences 330655; label: 5'-32P; hairpin with GAAA tetraloop, ERE in stem
Procedure: as §1
Whether the aptamers bind to the DNA binding site on the full-length hERα was tested in cross-competition assays using ERE-50mer as a specific competitor. Radiolabeled ERE-50mer was competed with 100× or 400× more concentrated nonradioactive competitors ERE-50mer, AptER-1, -2, -3 or Generation 1 pool of hERα selection G1 (see Example 1). Radiolabeled ERE-50mer at 5 nM was mixed with the competitors before the addition of hERα at 50 nM. The binding reaction was set up as described in the Materials and Methods, and electrophorised in a 4.8% polyacrylamide gel (acrylamide:bis-acrylamide=50:1) in ½ ΔTGB. ERE-50mer served as a positive control of competition, whereas the G1 pool was a negative control. […] This agreed with the result from a second cross-competition assay between radiolabeled AptER-1 and unlabeled ERE-50mer for binding to human ERα (FIG. 9A).

T2 sequence (P03372 whole entry, one chain of several): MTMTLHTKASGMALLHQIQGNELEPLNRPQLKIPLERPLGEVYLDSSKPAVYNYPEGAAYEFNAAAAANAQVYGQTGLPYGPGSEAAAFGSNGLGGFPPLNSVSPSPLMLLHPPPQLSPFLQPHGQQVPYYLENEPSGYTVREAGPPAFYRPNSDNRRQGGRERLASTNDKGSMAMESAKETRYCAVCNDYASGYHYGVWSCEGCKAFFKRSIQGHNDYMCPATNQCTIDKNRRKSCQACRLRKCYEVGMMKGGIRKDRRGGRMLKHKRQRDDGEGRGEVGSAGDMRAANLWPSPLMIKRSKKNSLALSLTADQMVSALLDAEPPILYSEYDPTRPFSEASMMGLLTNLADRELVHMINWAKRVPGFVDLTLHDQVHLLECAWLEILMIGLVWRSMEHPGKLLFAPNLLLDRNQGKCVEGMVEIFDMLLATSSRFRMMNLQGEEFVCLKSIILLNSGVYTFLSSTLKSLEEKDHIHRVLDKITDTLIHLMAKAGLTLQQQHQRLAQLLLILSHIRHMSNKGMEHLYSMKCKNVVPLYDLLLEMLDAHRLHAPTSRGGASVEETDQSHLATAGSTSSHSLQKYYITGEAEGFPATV
Chain of Human estrogen receptor beta (hERβ) (Q92731 whole entry, one chain of several): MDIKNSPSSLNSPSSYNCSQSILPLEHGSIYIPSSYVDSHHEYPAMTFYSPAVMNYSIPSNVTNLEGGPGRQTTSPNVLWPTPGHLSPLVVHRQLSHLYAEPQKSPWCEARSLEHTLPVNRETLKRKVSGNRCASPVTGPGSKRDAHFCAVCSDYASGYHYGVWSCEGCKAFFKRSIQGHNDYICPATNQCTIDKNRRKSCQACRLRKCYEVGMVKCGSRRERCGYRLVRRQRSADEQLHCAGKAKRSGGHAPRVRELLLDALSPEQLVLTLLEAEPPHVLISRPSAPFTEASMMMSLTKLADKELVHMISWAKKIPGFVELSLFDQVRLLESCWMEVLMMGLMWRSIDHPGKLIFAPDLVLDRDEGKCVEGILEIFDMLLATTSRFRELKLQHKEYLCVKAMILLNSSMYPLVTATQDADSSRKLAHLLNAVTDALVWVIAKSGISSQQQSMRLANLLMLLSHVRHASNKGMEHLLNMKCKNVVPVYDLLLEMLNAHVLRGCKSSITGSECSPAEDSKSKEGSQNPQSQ
Chain of hERα DNA-binding domain (P03372 180-268, one chain of several): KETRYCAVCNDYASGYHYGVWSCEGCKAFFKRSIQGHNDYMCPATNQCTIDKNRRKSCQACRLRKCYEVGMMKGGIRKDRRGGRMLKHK

## GCGUGACGGGCACCGCGAACAAAACGCAAGACAGAGUGCCGACAAGAGCACUACAAGCCCGUCCAUACUCCGGCACCGCGAACAAAACGCAAGACAGAGUGCCGACAAGAGCACUAACAGCCGGAGGCGCUU [AptER-1x2 (expressed dimer)]
[1]
  binding signal (fold (control reference)): 1

B1: sB65 (65nt truncated clone B65) (ssRNA)
RNA: GGGCAGAAGCACCGCGAACAAAACGCAAGACAGAGUGCCGACAAGAGCACUACAAGCUUCUGCCC
[2]
  binding result: binds

B2: AptER-1(65nt) (sB63) (ssRNA)
RNA: B1 RNA with A8G
[3]
  Kd: ~30 nM

B3: ERL5-6 (ssRNA)
RNA: GGGAGAAUUCAACUGCCAUCUAAAUGAAAGGACGCACACUACGUGUCCUACAAACACAGAAACAAAAACCGAACUACAAGCUUCUGGACUCGGU
[4]
  binding result: binds

B4: AptER-1(53nt) (ssRNA)
RNA: GGGCACCGCGAACAAAACGCAAGACAGAGUGCCGACAAGAGCACUACAAGCCC
[5]
  binding result: binds

B5: ERL5-1 (ssRNA)
RNA: GGGAGAAUUCAACUGCCAUCUACAAGCCAAGCAAGCGAGCAAAAAACGCGAGCAUCCGAGCUCCAAGACGUACUACAAGCUUCUGGACUCGGU
[6]
  binding result: binds

B6: ERL5-4 (ssRNA)
RNA: GGGAGAAUUCAACUGCCAUCUAACAGCCAAGUAAGCGACAACGACAAUCAAUGACGCGAACAAUCCGAAAGAACUACAAGCUUCUGGACUCGGU
[4]
  binding result: binds

B7: AptER-3 (ssRNA)
RNA: GGGAGAAUUCAACUGCCAUCUAGGCGACCCAGGGCCGGGACGCAAAGCAGCCAAAACAGACGGCCCCAGUCAGGGAGUUACUACAAGCUUCUGGACUCGGU
[7]
  Kd: 30 nM
[8]
  binding result: binds

## GGGCACCGCGAACAAAACGCAAGACAGAGUGCCC (ssRNA) [AptER-1 34nt version]
[9]
  binding result: no binding

B8: AptER-1x2(138nt) dimer (ssRNA)
RNA: GGAUCCGUGACGGGCACCGCGAACAAAACGCAAGACAGAGUGCCGACAAGAGCACUACAAGCCCGUCCAUACUCCGGCACCGCGAACAAAACGCAAGACAGAGUGCCGACAAGAGCACUAACAGCCGGAGGCGGAUCC
[10]
  Kd: < 15 nM

## AGTCAGGTCACAGTGACCTGATCGAAAGATCAGGTCACTGTGACCTGACT (structured_DNA) [ERE-50mer]
[11]
  binding result: binds
[12]
  binding result: binds

B9: AptER-2 (ssRNA)
RNA: GGGAGAAUUCAACUGCCAUCUAGGCACACGCGAGAUAGAGCGAGGCCUCCAAAAAUGGCCACGCCAGGAAGCAAGUACUACAAGCUUCUGGACUCGGU
[7]
  Kd: 21 nM
[8]
  binding result: binds

B10: ERL5-5 (ssRNA)
RNA: GGGAGAAUUCAACUGCCAUCUACAGAAGGACCGCGAGGGUAAAAACCACGCACGACAGAGUAUAACAAAACAACUACAAGCUUCUGGACUCGGU
[4]
  binding result: binds

— patent publication US20150031754, “APTAMER MODULATORS OF ESTROGEN RECEPTORS” (RESEARCH FOUNDATION OF STATE UNIVERSITY OF NEW YORK AT …, published 2015)
